Measurements: US20220251241A1 (NGM BIOPHARMACEUTICALS, published 2022)
Residue numbers refer to the chain shown, from its start. Names and notes keep the numbering of the source. Values belong to the binder of their own block, whether it stands above or below them.

How the values were obtained:
[1] = target: T1, HTRA1 (construct not given) (Homo sapiens (Human), UniProt Q92743 23-480, limits assumed); experiment: protease inhibition assay, casein substrate (EnzChek); apparent Ki (Ki^app)
Description: Two enzymatic assays were used to characterize HTRA1 protease activity and evaluate inhibitory activity of anti-HTRA1 antibodies. EnzChek® Protease Assay Kit (ThermoFisher Scientific) was used following the manufacturer's instructions. This kit contains casein protein that is heavily labeled with the pH-insensitive green-fluorescent BOPIPY® FL dye that results in almost total quenching of the conjugate's fluorescence. Protease-catalyzed hydrolysis of labeled casein releases highly fluorescent BODIPY® FL dye-labeled peptides. The concomitant increase in fluorescence is proportional to protease activity.
Antibodies identified in HTRA1 binding assays were tested for their ability to inhibit HTRA1 protease activity. The range of antibody concentrations was tested to establish a dose response curve and determine IC₅₀ values.

[2] = target: T1, HTRA1 (construct not stated in the …); experiment: cell-based or functional assay
[3] = target: human delta N-HTRA1 (amino acids 156-480 of SEQ ID NO:1) (human, UniProt Q92743 156-480); experiment: SPR (Biacore); antibody captured by anti-Fc, human delta N-HTRA1 injected; temperature of this table not stated
Experimental: (§1) The binding affinities of anti-HTRA1 antibodies to human HTRA1 were measured using a Biacore system (GE Healthcare Life Sciences). Briefly, anti-Fc antibody (Sigma-Aldrich) was immobilized on all four flow cells of a CMS chip using amine coupling reagents (GE Healthcare LifeSciences). Antibodies were captured on flow cells 2, 3, and 4 using flow cell 1 as a reference. Concentrations ranging from 3.3-10 nM of human delta N-HTRA1 were injected at a flow rate of 50 μL/min at 37° C. Kinetic data were collected over time and fit using the simultaneous global fit equation to yield affinity constants (KD values) for each antibody.

[4] = target: T1, HTRA1 (construct not stated in the …); experiment: protease inhibition assay, H2-Opt peptide substrate (FRET); apparent Ki (Ki^app)
[5] = target: T1, HTRA1 (construct not stated in the …); experiment: SPR (Biacore)
Experimental: as §1
In order to determine whether a hz24F7.v2 variant, comprising one of the amino acid substitutions disclosed in Table 15, retains its HTRA1 binding capability, functional characterization was performed via an SPR assay as described herein and an HTRA1 enzyme assay.

[6] = target: T1, HTRA1 (construct not stated in the …); experiment: cell-based or functional assay; remark: listed apart in the source
[7] = target: T1, HTRA1 (construct not stated in the …); experiment: cell-based or functional assay; remark: listed apart in the source
[8] = target: T1, HTRA1 (construct not stated in the …); experiment: cell-based or functional assay; remark: listed apart in the source
[9] = target: T1, HTRA1 (construct not stated in the …); experiment: SPR (Biacore); affinity at baseline

human delta N-HTRA1 (amino acids 156-480 of SEQ ID NO:1), sequence (Q92743 156-480, stated change not applied): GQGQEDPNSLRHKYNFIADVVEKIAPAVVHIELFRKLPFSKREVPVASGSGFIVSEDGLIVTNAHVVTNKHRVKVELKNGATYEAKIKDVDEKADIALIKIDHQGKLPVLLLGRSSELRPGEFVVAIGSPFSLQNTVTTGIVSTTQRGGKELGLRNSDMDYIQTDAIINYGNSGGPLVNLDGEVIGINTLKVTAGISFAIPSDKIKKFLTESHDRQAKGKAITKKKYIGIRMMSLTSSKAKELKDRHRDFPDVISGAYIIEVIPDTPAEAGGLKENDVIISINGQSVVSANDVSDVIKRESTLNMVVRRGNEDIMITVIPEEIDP
T1 sequence (Q92743 23-480 limits assumed): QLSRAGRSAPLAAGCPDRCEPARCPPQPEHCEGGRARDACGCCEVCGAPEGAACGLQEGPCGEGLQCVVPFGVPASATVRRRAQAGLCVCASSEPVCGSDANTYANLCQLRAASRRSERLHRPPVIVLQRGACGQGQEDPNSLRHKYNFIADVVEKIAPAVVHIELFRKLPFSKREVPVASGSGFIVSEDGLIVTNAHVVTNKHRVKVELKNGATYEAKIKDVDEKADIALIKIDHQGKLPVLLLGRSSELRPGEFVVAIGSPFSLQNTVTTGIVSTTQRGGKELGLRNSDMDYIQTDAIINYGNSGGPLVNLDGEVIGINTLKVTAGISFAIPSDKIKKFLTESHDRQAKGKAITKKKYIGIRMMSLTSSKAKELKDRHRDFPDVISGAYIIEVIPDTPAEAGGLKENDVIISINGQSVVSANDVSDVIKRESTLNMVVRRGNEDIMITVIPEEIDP

B1: antibody 9F8 (antibody, V domains shown)
VH: QVQLQQPGAELVRPGSSVKLSCKASGYAFTTYWMHWVKQRPIQGLEWIGNIDPSDSETHYNQKFRDKATLTVDKSSSTAYMQLSSLTSEDSAVYYCARDYGAFDVWGTGTTVTVSS
VL: QAVVTQESALTTSSGETVTLTCRSSTGAVTTRNFASWVQEKPDHLFTGLIGGTNNRAPGVPARFSGSLIGDKAALTITGAQTEDEAIYFCALWYSNLWVFGGGTKLTVL
notes: Mouse hybridoma monoclonal antibody
- Ki [1]: 0.035 nM
- IC50, Protease Assay-Casein substrate [2]: 0.19 nM
- IC50, Protease Assay-H2-Opt peptide [2]: 0.12 nM
- Kd [3]: 0.14 nM
- koff [3]: 0.0044 s⁻¹
- kon [3]: 3e+07 M⁻¹ s⁻¹
- Ki [4]: 0.092 nM

B2: hz24F7.v2 S91A (antibody, human IgG1, kappa, N297G, V domains shown)
VH: QVQLVQSGAEVKKPGASVKVSCKASGYTFTDYEMHWVRQAPGQRLEWMGAIDPETGGTAYNQKFKGRVTITADKSASTAYMELSSLRSEDTAVYYCTREGYSYEGGGYYFDYWGQGTLVTVSS
VL: DIQMTQSPSSLSASVGDRVTITCSVSSSVSYMYWYQQKPGKAPKLLIYDTSNLASGVPSRFSGSGSGTDFTFTISSLQPEDIATYYCQQWASYPTFGQGTKLEIKR
notes: hz24F7.v2 with a substitution in light chain CDR3
- Kd [5]: 0.0465 nM
- koff [5]: 0.000169 s⁻¹
- kon [5]: 3.63e+06 M⁻¹ s⁻¹

B3: hz24F7.v2 S91Y (antibody, human IgG1, kappa, N297G, V domains shown)
VH: B2 VH
VL: B2 VL with A91Y
notes: as for B2
- IC50, enzyme assay; sample stored pH 7.4, 40° C., 0 weeks [6]: 43.4 pM
- IC50, enzyme assay; sample stored pH 7.4, 40° C., 2 weeks [6]: 42 pM
- IC50, enzyme assay; sample stored pH 7.4, 40° C., 4 weeks [6]: 54.3 pM
- Kd [5]: 0.0405 nM
- koff [5]: 0.000184 s⁻¹
- kon [5]: 4.54e+06 M⁻¹ s⁻¹
- IC50, HTRA1 enzyme assay [7]: 0.07 nM
- IC50 at baseline [8]: 0.07 nM
- Kd [9]: 0.0405 nM
- koff [9]: 0.000184 s⁻¹
- kon [9]: 4.54e+06 M⁻¹ s⁻¹

B5: hz24F7.v2 S91L (antibody, human IgG1, kappa, N297G, V domains shown)
VH: B2 VH
VL: B2 VL with A91L
- Kd [5]: 0.0439 nM
- koff [5]: 0.000161 s⁻¹
- kon [5]: 3.67e+06 M⁻¹ s⁻¹
- IC50, HTRA1 enzyme assay [7]: 0.084 nM

B8: hz24F7.v2 S91T (antibody, human IgG1, kappa, N297G, V domains shown)
VH: B2 VH
VL: B2 VL with A91T
notes: as for B2
- Kd [5]: 0.0266 nM
- koff [5]: 0.000189 s⁻¹
- kon [5]: 7.1e+06 M⁻¹ s⁻¹

B9: antibody 55B12 (antibody, V domains shown)
VH: QVQLQQPGAELVKPGASVKLSCKASGYTFTNYWMHWVKQRPGQGLEWIGNIDPSDSETHYNQKFKDKATLAVDKSSSTAYMQLSSLTSEDSAVYYCAREDSSGYGAYWGQGTLVTVSA
VL: QIVLTQSPAIMSASPGEKVTMTCSASSSVNYMHWYQQKSGTSPKRWIYDTSKLASGVPDRFSGSGSGTSYSLTISSMEAEDAATYYCQQWSSHPLTFGAGTKLELK
notes: as for B1
- IC50, Protease Assay-Casein substrate [2]: 0.13 nM
- IC50, Protease Assay-H2-Opt peptide [2]: 0.13 nM
- Kd [3]: 0.45 nM
- koff [3]: 0.017 s⁻¹
- kon [3]: 3.8e+07 M⁻¹ s⁻¹

B10: antibody 65G8 (antibody, V domains shown)
VH: QVQLQQSGPQLVRPGASVKISCKASGYSFTSYWMHWVKQRPGQGLEWIGMIDPSDSETRLNQKFKDKATLTIDKSSSTAYMQLSSPTSEDSAVYYCTRDYFDYWGQGTTLTVSS
VL: QIVLTQSPAIMSTSPGEKVTMTCSASSSVSYMYWYQQKPGSSPRLLIYDTSNLASGVPVRFSGSGSGTSYSLTISRMEAEDAATYYCQQWSSYPYTFGGGTKLEIK
notes: as for B1
- IC50, Protease Assay-Casein substrate [2]: 0.06 nM
- IC50, Protease Assay-H2-Opt peptide [2]: 0.09 nM
- Kd [3]: 0.42 nM
- koff [3]: 0.003 s⁻¹
- kon [3]: 6.9e+06 M⁻¹ s⁻¹

Now from value to binder:

- Kd [5]: 0.0321 nM
- koff [5]: 0.000275 s⁻¹
- kon [5]: 8.56e+06 M⁻¹ s⁻¹
- IC50, HTRA1 enzyme assay [7]: 0.097 nM
B4: hz24F7.v2 S92Y (antibody, human IgG1, kappa, N297G, V domains shown)
VH: B2 VH
VL: B2 VL with A91S, S92Y
notes: as for B2

- Kd [5]: 0.0249 nM
- koff [5]: 0.000217 s⁻¹
- kon [5]: 8.7e+06 M⁻¹ s⁻¹
- IC50, HTRA1 enzyme assay [7]: 0.067 nM
B6: hz24F7.v2 S92D (antibody, human IgG1, kappa, N297G, V domains shown)
VH: B2 VH
VL: B2 VL with A91S, S92D
notes: as for B2

- IC50, enzyme assay; sample stored pH 7.4, 40° C., 0 weeks [6]: 67.5 pM
- IC50, enzyme assay; sample stored pH 7.4, 40° C., 2 weeks [6]: 75.2 pM
- IC50, enzyme assay; sample stored pH 7.4, 40° C., 4 weeks [6]: 93.7 pM
- Kd [5]: 0.02 nM
- koff [5]: 0.000197 s⁻¹
- kon [5]: 9.81e+06 M⁻¹ s⁻¹
- IC50, HTRA1 enzyme assay [7]: 0.098 nM
B7: hz24F7.v2 S92T (antibody, human IgG1, kappa, N297G, V domains shown)
VH: B2 VH
VL: B2 VL with A91S, S92T
notes: as for B2
